# Measured values from paper PMC2148136.
# Target: Gin4p kinase domain (codons 1-294), DBD fusion (S. cerevisiae) (UniProt Q12263)
# Experiment: two-hybrid
# UniProt Q12263, sequence (Q12263 1-294): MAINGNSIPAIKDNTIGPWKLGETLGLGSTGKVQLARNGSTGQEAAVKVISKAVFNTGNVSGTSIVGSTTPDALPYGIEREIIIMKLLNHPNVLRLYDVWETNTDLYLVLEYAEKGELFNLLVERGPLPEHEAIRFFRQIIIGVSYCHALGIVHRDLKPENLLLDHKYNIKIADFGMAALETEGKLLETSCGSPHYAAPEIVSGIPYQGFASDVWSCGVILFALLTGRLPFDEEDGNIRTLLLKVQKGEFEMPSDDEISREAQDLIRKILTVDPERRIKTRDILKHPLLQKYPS
substance,measurement,value
"COOH-terminal region of Cdc3p (the 101 COOH-terminal amino acids), AD fusion (domain or fragment)",units of β-galactosidase activity (units of β-galactosidase activity),727
